Results published in PMC4769319, “Cohesin Releases DNA through Asymmetric ATPase-Driven Ring Opening” (Molecular Cell, 2016).

T1: full-length StrepII-Smc3 (wild-type) (S. cerevisiae, UniProt P47037 1-1230)
T1 construct: Smc3, S. cerevisiae, full length; source: Sf9 insect cells, expressed alone, purified (Strep-II tag purification, size-exclusion chromatography)
T1 sequence (looked up): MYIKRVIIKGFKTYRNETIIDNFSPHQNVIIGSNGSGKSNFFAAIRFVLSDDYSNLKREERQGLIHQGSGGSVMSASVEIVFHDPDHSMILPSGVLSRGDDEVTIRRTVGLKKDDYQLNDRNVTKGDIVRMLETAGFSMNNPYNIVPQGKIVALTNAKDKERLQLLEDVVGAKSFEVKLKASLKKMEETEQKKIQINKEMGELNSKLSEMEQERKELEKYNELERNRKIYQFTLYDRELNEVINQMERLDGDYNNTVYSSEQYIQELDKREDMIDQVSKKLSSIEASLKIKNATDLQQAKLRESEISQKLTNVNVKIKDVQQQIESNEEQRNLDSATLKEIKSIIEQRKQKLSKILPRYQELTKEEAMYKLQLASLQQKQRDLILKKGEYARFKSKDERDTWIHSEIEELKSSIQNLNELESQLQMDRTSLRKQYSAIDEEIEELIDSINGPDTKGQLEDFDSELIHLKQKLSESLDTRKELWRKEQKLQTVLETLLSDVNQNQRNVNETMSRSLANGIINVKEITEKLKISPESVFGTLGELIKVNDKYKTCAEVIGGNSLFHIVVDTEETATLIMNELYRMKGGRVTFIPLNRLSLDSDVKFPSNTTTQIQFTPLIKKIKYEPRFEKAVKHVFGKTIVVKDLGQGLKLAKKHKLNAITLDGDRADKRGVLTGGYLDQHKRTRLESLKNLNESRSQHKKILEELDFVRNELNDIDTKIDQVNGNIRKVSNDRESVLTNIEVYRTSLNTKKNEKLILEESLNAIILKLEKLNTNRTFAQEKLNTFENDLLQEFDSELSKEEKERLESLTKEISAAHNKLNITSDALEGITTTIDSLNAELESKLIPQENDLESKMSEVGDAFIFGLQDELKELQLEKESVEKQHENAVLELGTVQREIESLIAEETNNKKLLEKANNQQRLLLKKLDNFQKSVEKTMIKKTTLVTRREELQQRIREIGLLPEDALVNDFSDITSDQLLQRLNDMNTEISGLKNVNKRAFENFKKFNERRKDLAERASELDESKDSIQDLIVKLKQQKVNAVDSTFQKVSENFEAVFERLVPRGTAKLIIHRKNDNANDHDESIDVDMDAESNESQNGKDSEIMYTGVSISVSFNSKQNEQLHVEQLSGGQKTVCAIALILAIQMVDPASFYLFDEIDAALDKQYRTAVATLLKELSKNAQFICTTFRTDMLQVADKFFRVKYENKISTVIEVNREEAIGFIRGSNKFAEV


Biological target: T1, full-length StrepII-Smc3 (wild-type)
Test: scanning force microscopy; full-length Smc1 co-incubated with full-length Smc3 in the presence of ATP, seeded on mica; V shapes and ring shapes counted as heterodimers
Conditions: both partners purified

Row | Binder | binding result
1 | full-length HIS6-Smc1 (wild-type) (natural protein, S. cerevisiae, UniProt P32908 1-1225, looked up, Smc1, S. cerevisiae, full length; Always co-expressed and co-purified with StrepII-Scc1-C; vector pFastBac NKI-LIC; details in Supplemental Experimental Procedures; not shown: His6, N-terminal, kept) MGRLVGLELSNFKSYRGVTKVGFGESNFTSIIGPNGSGKSNMMDAISFVLGVRSNHLRSNILKDLIYRGVLNDENSDDYDNEGAASSNPQSAYVKAFYQKGNKLVELMRIISRNGDTSYKIDGKTVSYKDYSIFLENENILIKAKNFLVFQGDVEQIAAQSPVELSRMFEEVSGSIQYKKEYEELKEKIEKLSKSATESIKNRRRIHGELKTYKEGINKNEEYRKQLDKKNELQKFQALWQLYHLEQQKEELTDKLSALNSEISSLKGKINNEMKSLQRSKSSFVKESAVISKQKSKLDYIFKDKEKLVSDLRLIKVPQQAAGKRISHIEKRIESLQKDLQRQKTYVERFETQLKVVTRSKEAFEEEIKQSARNYDKFKLNENDLKTYNCLHEKYLTEGGSILEEKIAVLNNDKREIQEELERFNKRADISKRRITEELSITGEKLDTQLNDLRVSLNEKNALHTERLHELKKLQSDIESANNQEYDLNFKLRETLVKIDDLSANQRETMKERKLRENIAMLKRFFPGVKGLVHDLCHPKKEKYGLAVSTILGKNFDSVIVENLTVAQECIAFLKKQRAGTASFIPLDTIETELPTLSLPDSQDYILSINAIDYEPEYEKAMQYVCGDSIICNTLNIAKDLKWKKGIRGKLVTIEGALIHKAGLMTGGISGDANNRWDKEEYQSLMSLKDKLLIQIDELSNGQRSNSIRAREVENSVSLLNSDIANLRTQVTQQKRSLDENRLEIKYHNDLIEKEIQPKITELKKKLDDLENTKDNLVKEKEALQNNIFKEFTSKIGFTIKEYENHSGELMRQQSKELQQLQKQILTVENKLQFETDRLSTTQRRYEKAQKDLENAQVEMKSLEEQEYAIEMKIGSIESKLEEHKNHLDELQKKFVTKQSELNSSEDILEDMNSNLQVLKRERDGIKEDIEKFDLERVTALKNCKISNINIPISSETTIDDLPISSTDNEAITISNSIDINYKGLPKKYKENNTDSARKELEQKIHEVEEILNELQPNARALERYDEAEGRFEVINNETEQLKAEEKKILNQFLKIKKKRKELFEKTFDYVSDHLDAIYRELTKNPNSNVELAGGNASLTIEDEDEPFNAGIKYHATPPLKRFKDMEYLSGGEKTVAALALLFAINSYQPSPFFVLDEVDAALDITNVQRIAAYIRRHRNPDLQFIVISLKNTMFEKSDALVGVYRQQQENSSKIITLDLSNYAE | binds
2 | full-length HIS6-Smc1 L1129V (natural protein, S. cerevisiae, UniProt P32908 1-1225, looked up, Smc1, S. cerevisiae, full length, Signature motif mutant; Co-purified with StrepII-Scc1-C; also called Signature motif mutant L1129V; not shown: His6, N-terminal, kept) MGRLVGLELSNFKSYRGVTKVGFGESNFTSIIGPNGSGKSNMMDAISFVLGVRSNHLRSNILKDLIYRGVLNDENSDDYDNEGAASSNPQSAYVKAFYQKGNKLVELMRIISRNGDTSYKIDGKTVSYKDYSIFLENENILIKAKNFLVFQGDVEQIAAQSPVELSRMFEEVSGSIQYKKEYEELKEKIEKLSKSATESIKNRRRIHGELKTYKEGINKNEEYRKQLDKKNELQKFQALWQLYHLEQQKEELTDKLSALNSEISSLKGKINNEMKSLQRSKSSFVKESAVISKQKSKLDYIFKDKEKLVSDLRLIKVPQQAAGKRISHIEKRIESLQKDLQRQKTYVERFETQLKVVTRSKEAFEEEIKQSARNYDKFKLNENDLKTYNCLHEKYLTEGGSILEEKIAVLNNDKREIQEELERFNKRADISKRRITEELSITGEKLDTQLNDLRVSLNEKNALHTERLHELKKLQSDIESANNQEYDLNFKLRETLVKIDDLSANQRETMKERKLRENIAMLKRFFPGVKGLVHDLCHPKKEKYGLAVSTILGKNFDSVIVENLTVAQECIAFLKKQRAGTASFIPLDTIETELPTLSLPDSQDYILSINAIDYEPEYEKAMQYVCGDSIICNTLNIAKDLKWKKGIRGKLVTIEGALIHKAGLMTGGISGDANNRWDKEEYQSLMSLKDKLLIQIDELSNGQRSNSIRAREVENSVSLLNSDIANLRTQVTQQKRSLDENRLEIKYHNDLIEKEIQPKITELKKKLDDLENTKDNLVKEKEALQNNIFKEFTSKIGFTIKEYENHSGELMRQQSKELQQLQKQILTVENKLQFETDRLSTTQRRYEKAQKDLENAQVEMKSLEEQEYAIEMKIGSIESKLEEHKNHLDELQKKFVTKQSELNSSEDILEDMNSNLQVLKRERDGIKEDIEKFDLERVTALKNCKISNINIPISSETTIDDLPISSTDNEAITISNSIDINYKGLPKKYKENNTDSARKELEQKIHEVEEILNELQPNARALERYDEAEGRFEVINNETEQLKAEEKKILNQFLKIKKKRKELFEKTFDYVSDHLDAIYRELTKNPNSNVELAGGNASLTIEDEDEPFNAGIKYHATPPLKRFKDMEYVSGGEKTVAALALLFAINSYQPSPFFVLDEVDAALDITNVQRIAAYIRRHRNPDLQFIVISLKNTMFEKSDALVGVYRQQQENSSKIITLDLSNYAE | binds

More lines, now with the values ahead:

Row | binding result | Binder
3 | binds | full-length HIS6-Smc1 K39I (natural protein, S. cerevisiae, UniProt P32908 1-1225, looked up, Smc1, S. cerevisiae, full length, Walker A mutant; Co-purified with StrepII-Scc1-C; also called Walker A mutant Smc1 K39I; not shown: His6, N-terminal, kept) MGRLVGLELSNFKSYRGVTKVGFGESNFTSIIGPNGSGISNMMDAISFVLGVRSNHLRSNILKDLIYRGVLNDENSDDYDNEGAASSNPQSAYVKAFYQKGNKLVELMRIISRNGDTSYKIDGKTVSYKDYSIFLENENILIKAKNFLVFQGDVEQIAAQSPVELSRMFEEVSGSIQYKKEYEELKEKIEKLSKSATESIKNRRRIHGELKTYKEGINKNEEYRKQLDKKNELQKFQALWQLYHLEQQKEELTDKLSALNSEISSLKGKINNEMKSLQRSKSSFVKESAVISKQKSKLDYIFKDKEKLVSDLRLIKVPQQAAGKRISHIEKRIESLQKDLQRQKTYVERFETQLKVVTRSKEAFEEEIKQSARNYDKFKLNENDLKTYNCLHEKYLTEGGSILEEKIAVLNNDKREIQEELERFNKRADISKRRITEELSITGEKLDTQLNDLRVSLNEKNALHTERLHELKKLQSDIESANNQEYDLNFKLRETLVKIDDLSANQRETMKERKLRENIAMLKRFFPGVKGLVHDLCHPKKEKYGLAVSTILGKNFDSVIVENLTVAQECIAFLKKQRAGTASFIPLDTIETELPTLSLPDSQDYILSINAIDYEPEYEKAMQYVCGDSIICNTLNIAKDLKWKKGIRGKLVTIEGALIHKAGLMTGGISGDANNRWDKEEYQSLMSLKDKLLIQIDELSNGQRSNSIRAREVENSVSLLNSDIANLRTQVTQQKRSLDENRLEIKYHNDLIEKEIQPKITELKKKLDDLENTKDNLVKEKEALQNNIFKEFTSKIGFTIKEYENHSGELMRQQSKELQQLQKQILTVENKLQFETDRLSTTQRRYEKAQKDLENAQVEMKSLEEQEYAIEMKIGSIESKLEEHKNHLDELQKKFVTKQSELNSSEDILEDMNSNLQVLKRERDGIKEDIEKFDLERVTALKNCKISNINIPISSETTIDDLPISSTDNEAITISNSIDINYKGLPKKYKENNTDSARKELEQKIHEVEEILNELQPNARALERYDEAEGRFEVINNETEQLKAEEKKILNQFLKIKKKRKELFEKTFDYVSDHLDAIYRELTKNPNSNVELAGGNASLTIEDEDEPFNAGIKYHATPPLKRFKDMEYLSGGEKTVAALALLFAINSYQPSPFFVLDEVDAALDITNVQRIAAYIRRHRNPDLQFIVISLKNTMFEKSDALVGVYRQQQENSSKIITLDLSNYAE
4 | binds | full-length HIS6-Smc1 D1164E (natural protein, S. cerevisiae, UniProt P32908 1-1225, looked up, Smc1, S. cerevisiae, full length, D-loop mutant; Co-purified with StrepII-Scc1-C; also called D-loop mutant D1164E; not shown: His6, N-terminal, kept) MGRLVGLELSNFKSYRGVTKVGFGESNFTSIIGPNGSGKSNMMDAISFVLGVRSNHLRSNILKDLIYRGVLNDENSDDYDNEGAASSNPQSAYVKAFYQKGNKLVELMRIISRNGDTSYKIDGKTVSYKDYSIFLENENILIKAKNFLVFQGDVEQIAAQSPVELSRMFEEVSGSIQYKKEYEELKEKIEKLSKSATESIKNRRRIHGELKTYKEGINKNEEYRKQLDKKNELQKFQALWQLYHLEQQKEELTDKLSALNSEISSLKGKINNEMKSLQRSKSSFVKESAVISKQKSKLDYIFKDKEKLVSDLRLIKVPQQAAGKRISHIEKRIESLQKDLQRQKTYVERFETQLKVVTRSKEAFEEEIKQSARNYDKFKLNENDLKTYNCLHEKYLTEGGSILEEKIAVLNNDKREIQEELERFNKRADISKRRITEELSITGEKLDTQLNDLRVSLNEKNALHTERLHELKKLQSDIESANNQEYDLNFKLRETLVKIDDLSANQRETMKERKLRENIAMLKRFFPGVKGLVHDLCHPKKEKYGLAVSTILGKNFDSVIVENLTVAQECIAFLKKQRAGTASFIPLDTIETELPTLSLPDSQDYILSINAIDYEPEYEKAMQYVCGDSIICNTLNIAKDLKWKKGIRGKLVTIEGALIHKAGLMTGGISGDANNRWDKEEYQSLMSLKDKLLIQIDELSNGQRSNSIRAREVENSVSLLNSDIANLRTQVTQQKRSLDENRLEIKYHNDLIEKEIQPKITELKKKLDDLENTKDNLVKEKEALQNNIFKEFTSKIGFTIKEYENHSGELMRQQSKELQQLQKQILTVENKLQFETDRLSTTQRRYEKAQKDLENAQVEMKSLEEQEYAIEMKIGSIESKLEEHKNHLDELQKKFVTKQSELNSSEDILEDMNSNLQVLKRERDGIKEDIEKFDLERVTALKNCKISNINIPISSETTIDDLPISSTDNEAITISNSIDINYKGLPKKYKENNTDSARKELEQKIHEVEEILNELQPNARALERYDEAEGRFEVINNETEQLKAEEKKILNQFLKIKKKRKELFEKTFDYVSDHLDAIYRELTKNPNSNVELAGGNASLTIEDEDEPFNAGIKYHATPPLKRFKDMEYLSGGEKTVAALALLFAINSYQPSPFFVLDEVDAALEITNVQRIAAYIRRHRNPDLQFIVISLKNTMFEKSDALVGVYRQQQENSSKIITLDLSNYAE
